Measured values from patent US20210301011A1, “COMPOSITION FOR PROPHYLAXIS OR TREATMENT OF IL-8 RELATED DISEASES” (CHUGAI SEIYAKU KABUSHIKI KAISHA, priority 2016, published 2021).

Tests used:
post-surgical adhesion = assay: Post-surgical adhesion-induced monkey model; assay type: in vivo, cynomolgus monkeys; parameters: key: ∘: Adhesion found; x: No adhesion; conditions: 10 mg/kg i.v. one hour or less after surgery; laparoscopy 24 to 35 days after; per animal
Protocol: To prepare a post-surgical adhesion-induced model, female cynomolgus monkeys 9 to 16 years of age (provided by the Tsukuba Primate Research Center at the National Institutes of Biomedical Innovation, Health and Nutrition) were treated under anesthesia as follows. Anesthesia was performed using balanced anesthesia of ketamine/xylazine (mixed at an adequate ratio of about 2:1) and isoflurane. An incision of 5 to 6 cm was made in the median line of the abdominal wall. After opening the abdomen, a 1-cm incision was made on the uterine corpus and sutured with 4 stitches using a single suture. Then, the whole uterus was brushed five times with gauze. Next, a 1-cm incision was made to the right abdominal wall peritoneal part at 2 cm from the incised median line of the abdominal wall and sutured by running suture with 4 stitches using an absorbable suture. After suture, the sutured part was brushed five times with gauze. Likewise, the peritoneum of left abdominal wall was incised, sutured, and brushed with gauze. Finally, the median line of abdominal wall was sutured by running suture with 10 to 11 stitches. The entire steps were completed in one hour or less. The antagonist Antisedan (in roughly the same amount as that of xylazine) and the antibiotic cephradine were administered at the time of awakening after surgery. Then, the pain reliever Zalban was administered for two days after surgery, and the monkeys were observed regularly every day to confirm the absence of post-surgical abnormalities. At laparoscopic observation, anesthesia and post-surgical monitoring were also performed in the same way.
The control group was untreated. 24 to 35 days after administration of the anti-IL-8 antibody, laparoscopy was performed to observe the adhesion formed due to incision, suture, and blushing with gauze. The abdomen was incised in the median line under anesthesia, and laparoscopic observation was performed by inserting a trocar and then introducing a laparoscope. The laparoscope was connected to a video system (KARL STORZ) and a monitor. The video system was used for recording, and the monitor was used for intraperitoneal observation. The size of the adhesion was measured using a graduated bar or graduated forceps. The presence, range, and location of adhesion were assessed during laparoscopic observation. […] Although adhesion was found in individual No. 206 in the anti-IL-8 antibody administration group, no adhesion was found in the right and left abdominal wall peritoneum or at the uterine incision site in individual No. 201. […] Those skilled in the art will naturally appreciate that anti-IL-8 antibodies may exert a stronger adhesion formation-preventive effect by appropriately altering the timing of administration or such. […]

human FcγRIa = molecular target: T1, human FcγRIa (Homo sapiens, UniProt P12314); assay: Binding to soluble FcγR (BIACORE T200); conditions: 20° C., HBS-EP+
T1 construct: the soluble forms of FcγRIa and FcγRIIIa in human and cynomolgus monkey; His tag; made in house
T1 sequence (P12314 16-292 limits assumed): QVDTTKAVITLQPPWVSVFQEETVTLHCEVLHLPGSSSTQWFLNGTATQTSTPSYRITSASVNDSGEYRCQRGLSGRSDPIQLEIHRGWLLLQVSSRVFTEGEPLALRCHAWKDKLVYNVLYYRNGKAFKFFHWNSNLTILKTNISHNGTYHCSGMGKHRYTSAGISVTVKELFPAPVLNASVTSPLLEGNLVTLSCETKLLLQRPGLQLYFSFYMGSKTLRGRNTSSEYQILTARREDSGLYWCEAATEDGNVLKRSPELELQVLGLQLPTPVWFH
Protocol: (§1) Soluble FcγRIa and FcγRIIIa in both human and cynomolgus monkey were produced in the form of His-tagged molecules by methods known to those of ordinary skill in the art. […] Next, soluble FcγRIa or FcγRIIIa was injected with a running buffer (used as a reference solution), and was made to interact with the antibodies captured onto the sensor chip. HBS-EP+(GE Healthcare) was used as the running buffer, and HBS-EP+ was also used to dilute the soluble FcγRIa or FcγRIIIa. […] All measurements were carried out at 20° C.

human FcγRIIIa = molecular target: T2, human FcγRIIIa (Homo sapiens, UniProt P08637); assay: Binding to soluble FcγR (BIACORE T200); conditions: 20° C., HBS-EP+
T2 construct: the soluble forms of FcγRIa and FcγRIIIa in human and cynomolgus monkey; His tag; made in house
T2 sequence (P08637 17-208 limits assumed): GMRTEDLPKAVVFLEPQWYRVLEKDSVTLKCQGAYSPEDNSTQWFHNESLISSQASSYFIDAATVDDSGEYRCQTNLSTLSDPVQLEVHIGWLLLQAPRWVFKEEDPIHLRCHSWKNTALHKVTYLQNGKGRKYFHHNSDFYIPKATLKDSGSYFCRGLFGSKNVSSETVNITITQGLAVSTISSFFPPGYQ
Protocol: as §1

cynomolgus monkey FcγRIa = assay: Binding to soluble FcγR (BIACORE T200); conditions: 20° C., HBS-EP+
Protocol: as §1

[1] = molecular target: T3, cynomolgus monkey FcγRIIIa (Macaca fascicularis, UniProt Q8SPW2); assay: Binding to soluble FcγR (BIACORE T200); conditions: 20° C., HBS-EP+
T3 construct: the soluble forms of FcγRIa and FcγRIIIa in human and cynomolgus monkey; His tag; made in house
T3 sequence (Q8SPW2 17-208 limits assumed): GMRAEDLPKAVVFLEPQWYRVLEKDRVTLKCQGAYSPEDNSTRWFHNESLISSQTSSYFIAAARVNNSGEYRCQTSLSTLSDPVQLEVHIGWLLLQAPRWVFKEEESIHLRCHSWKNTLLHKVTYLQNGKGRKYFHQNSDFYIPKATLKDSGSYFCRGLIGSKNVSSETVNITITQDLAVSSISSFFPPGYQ
Protocol: as §1

- binding to soluble human FcγRIa (human FcγRIa): not to bind to any of the FcγRs
- binding to soluble human FcγRIIIa (human FcγRIIIa): not to bind to any of the FcγRs
- binding to soluble cynomolgus monkey FcγRIa (cynomolgus monkey FcγRIa): not to bind to any of the FcγRs
- binding to soluble cynomolgus monkey FcγRIIIa [1]: not to bind to any of the FcγRs
B1: H1009/L395-F1974m: H1009-F1974m (SEQ ID NO:36) heavy chain, L395-kOMT light chain; the anti-IL-8 antibody of Table 29 (antibody)
heavy: QVQLVESGGGLVQPGGSLRLSCAASGFTFSDYYLSWVRQAPGKGLEWVGLIRNKDNYHTPEYSASVKGRFTISRDDSKNSLYLTMSDLKTEDTAVYYCARENHRYDVELAYWGQGTLVTVSSASTKGPSVFPLAPSSKSTSGGTAALGCLVKDYFPEPVTVSWNSGALTSGVHTFPAVLQSSGLYSLSSVVTVPSSSLGTQTYICNVNHKPSNTKVDKKVEPKSCDKTHTCPPCPAPELRRGPSVFLFPPKPKDTLMISRTPEVTCVVVDVSHEDPEVKFNWYVDGVEVHNAKTKPREEQYNSTYRVVSVLTVLHQDWLNGKEYKCKVSNKGLPSSIEKTISKAKGQPREPQVYTLPPSREEMTKNQVSLTCLVKGFYPSDIAVEWESNGQPENNYKTTPPVLDSDGSFFLYSKLTVDKSRWQQGNVFSCSVLHEALHAHTTRKELSLSP
light: DIQMTQSPSSLSASVGDRVTITCRASEIIYSYLAWYQQKPGKAPKLLIYKAKTHADGVPSRFSGSGSGTDFTFTISSLQPEDIATYYCKHHFGFPRTFGQGTKVEIKRTVAAPSVFIFPPSDEQLKSGTASVVCLLNNFYPREAKVQWKVDNALQSGNSQESVTEQDSKDSTYSLSSTLTLSKADYEKHKVYACEVTHQGLSSPVTKSFNRGEC
- adhesion at incision site: Abdominal wall, Median line (post-surgical adhesion): ∘
- adhesion at incision site: Abdominal wall, Peritoneum (L) (post-surgical adhesion): ∘ and x
- adhesion at incision site: Abdominal wall, Peritoneum (R) (post-surgical adhesion): ∘ and x
- adhesion at incision site: Uterus (post-surgical adhesion): ∘ and x
